According to IntAct's records for PubMed 31515488:

B1: Actin nucleation-promoting factor WAS (Homo sapiens), P42768 (parent)
chain: MSGGPMGGRPGGRGAPAVQQNIPSTLLQDHENQRLFEMLGRKCLTLATAVVQLYLALPPGAEHWTKEHCGAVCFVKDNPQKSYFIRLYGLQAGRLLWEQELYSQLVYSTPTPFFHTFAGDDCQAGLNFADEDEAQAFRALVQEKIQKRNQRQSGDRRQLPPPPTPANEERRGGLPPLPLHPGGDQGGPPVGPLSLGLATVDIQNPDITSSRYRGLPAPGPSPADKKRSGKKKISKADIGAPSGFKHVSHVGWDPQNGFDVNNLDPDLRSLFSRAGISEAQLTDAETSKLIYDFIEDQGGLEAVRQEMRRQEPLPPPPPPSRGGNQLPRPPIVGGNKGRSGPLPPVPLGIAPPPPTPRGPPPPGRGGPPPPPPPATGRSGPLPPPPPGAGGPPMPPPPPPPPPPPSSGNGPAPPPLPPALVPAGGLAPGGGRGALLDQIRQGIQLNKTPGAPESSALQPPPQSSEGLVGALMHVMQKRSRAIHSSDEGEDQAGDEDEDDEWDD
B2: Alpha-ketoglutarate-dependent dioxygenase alkB homolog 4 (Homo sapiens), Q9NXW9 (parent)
chain: MAAAAAETPEVLRECGCKGIRTCLICERQRGSDPPWELPPAKTYRFIYCSDTGWAVGTEESDFEGWAFPFPGVMLIEDFVTREEEAELVRLMDRDPWKLSQSGRRKQDYGPKVNFRKQKLKTEGFCGLPSFSREVVRRMGLYPGLEGFRPVEQCNLDYCPERGSAIDPHLDDAWLWGERLVSLNLLSPTVLSMCREAPGSLLLCSAPSAAPEALVDSVIAPSRSVLCQEVEVAIPLPARSLLVLTGAARHQWKHAIHRRHIEARRVCVTFRELSAEFGPGGRQQELGQELLRIALSFQGRPV
B3: Keratin-associated protein 5-9 (Homo sapiens), P26371 (parent)
chain: MGCCGCSGGCGSSCGGCDSSCGSCGSGCRGCGPSCCAPVYCCKPVCCCVPACSCSSCGKRGCGSCGGSKGGCGSCGCSQCSCCKPCCCSSGCGSSCCQCSCCKPYCSQCSCCKPCCSSSGRGSSCCQSSCCKPCCSSSGCGSSCCQSSCCKPCCSQSRCCVPVCYQCKI
partner: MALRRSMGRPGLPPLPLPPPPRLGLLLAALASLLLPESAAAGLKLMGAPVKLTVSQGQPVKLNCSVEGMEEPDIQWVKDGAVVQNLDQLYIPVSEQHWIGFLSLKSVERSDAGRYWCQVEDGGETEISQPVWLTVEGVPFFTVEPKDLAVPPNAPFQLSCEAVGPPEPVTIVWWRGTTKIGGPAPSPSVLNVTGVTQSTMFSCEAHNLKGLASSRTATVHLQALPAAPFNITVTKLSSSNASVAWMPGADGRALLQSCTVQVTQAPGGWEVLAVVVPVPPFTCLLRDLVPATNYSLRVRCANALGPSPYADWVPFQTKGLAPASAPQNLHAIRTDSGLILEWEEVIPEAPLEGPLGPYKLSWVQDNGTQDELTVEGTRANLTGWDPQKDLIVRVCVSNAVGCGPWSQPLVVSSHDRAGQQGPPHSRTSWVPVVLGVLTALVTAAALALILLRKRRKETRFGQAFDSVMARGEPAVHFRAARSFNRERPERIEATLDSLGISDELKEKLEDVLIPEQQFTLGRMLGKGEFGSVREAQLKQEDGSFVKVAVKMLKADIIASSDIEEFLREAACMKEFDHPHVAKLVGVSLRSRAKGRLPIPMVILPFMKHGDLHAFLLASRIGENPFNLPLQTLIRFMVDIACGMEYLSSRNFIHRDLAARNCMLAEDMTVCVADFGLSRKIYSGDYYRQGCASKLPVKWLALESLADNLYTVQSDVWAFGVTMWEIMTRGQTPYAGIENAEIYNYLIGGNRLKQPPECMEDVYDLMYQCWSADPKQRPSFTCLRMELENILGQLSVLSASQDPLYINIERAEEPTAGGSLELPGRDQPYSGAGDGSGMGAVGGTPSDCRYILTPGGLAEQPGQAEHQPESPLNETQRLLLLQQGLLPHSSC
B4: Baculoviral IAP repeat-containing protein 7 (Homo sapiens), Q96CA5 (parent)
chain: MGPKDSAKCLHRGPQPSHWAAGDGPTQERCGPRSLGSPVLGLDTCRAWDHVDGQILGQLRPLTEEEEEEGAGATLSRGPAFPGMGSEELRLASFYDWPLTAEVPPELLAAAGFFHTGHQDKVRCFFCYGGLQSWKRGDDPWTEHAKWFPSCQFLLRSKGRDFVHSVQETHSQLLGSWDPWEEPEDAAPVAPSVPASGYPELPTPRREVQSESAQEPGGVSPAEAQRAWWVLEPPGARDVEAQLRRLQEERTCKVCLDRAVSIVFVPCGHLVCAECAPGLQLCPICRAPVRSRVRTFLS
partner: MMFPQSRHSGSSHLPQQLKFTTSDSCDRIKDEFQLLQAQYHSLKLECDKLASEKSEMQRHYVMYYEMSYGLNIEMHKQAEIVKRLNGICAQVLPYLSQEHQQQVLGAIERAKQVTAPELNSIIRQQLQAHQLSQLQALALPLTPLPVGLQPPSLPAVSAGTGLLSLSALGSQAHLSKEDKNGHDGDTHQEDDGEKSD

Variants of: B1
Settings: with cdc42_human CDC42, P60953
cdc42_human CDC42, P60953, sequence (P60953 whole entry, looked up): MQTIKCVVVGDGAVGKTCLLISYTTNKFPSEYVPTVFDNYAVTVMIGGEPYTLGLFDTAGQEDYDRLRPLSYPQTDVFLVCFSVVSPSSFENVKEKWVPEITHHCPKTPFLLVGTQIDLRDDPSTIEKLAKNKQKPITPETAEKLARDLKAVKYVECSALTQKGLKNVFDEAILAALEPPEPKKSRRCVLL

Variant | effect of a mutation on the interaction
I294T | disrupting interaction strength
E131K | with no effect

Variants of: B2
Settings: with dtx2_human DTX2, Q86UW9
dtx2_human DTX2, Q86UW9, sequence (Q86UW9 whole entry): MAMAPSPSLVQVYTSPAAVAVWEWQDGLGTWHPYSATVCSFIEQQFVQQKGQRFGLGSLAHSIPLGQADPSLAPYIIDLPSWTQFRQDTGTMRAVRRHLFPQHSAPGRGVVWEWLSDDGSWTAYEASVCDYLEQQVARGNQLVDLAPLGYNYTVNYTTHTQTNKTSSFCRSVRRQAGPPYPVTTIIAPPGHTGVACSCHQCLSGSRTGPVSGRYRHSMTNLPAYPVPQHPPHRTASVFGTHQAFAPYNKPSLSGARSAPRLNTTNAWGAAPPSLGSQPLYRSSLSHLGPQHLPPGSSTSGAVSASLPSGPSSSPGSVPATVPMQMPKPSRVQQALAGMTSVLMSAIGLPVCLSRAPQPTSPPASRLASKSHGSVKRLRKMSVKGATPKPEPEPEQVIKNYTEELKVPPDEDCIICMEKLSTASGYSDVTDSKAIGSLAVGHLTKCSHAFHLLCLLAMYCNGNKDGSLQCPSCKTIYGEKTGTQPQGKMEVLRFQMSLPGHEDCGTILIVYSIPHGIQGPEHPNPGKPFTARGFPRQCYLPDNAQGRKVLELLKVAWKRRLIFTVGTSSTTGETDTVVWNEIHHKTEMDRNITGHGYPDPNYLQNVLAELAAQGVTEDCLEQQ

Variant | effect of a mutation on the interaction
R239C | with no effect

Variants of: B3
Settings: with tyro3_human TYRO3, Q06418

Variant | effect of a mutation on the interaction
Y40C | disrupting interaction strength

Variants of: B4
Settings: with tle5_human TLE5, Q08117

Variant | effect of a mutation on the interaction
H164R | with no effect

Variants of: B4
Settings: with tle5_human TLE5, Q08117
Remark: another data set of the same source

Variant | effect of a mutation on the interaction
H164R | with no effect
